Results published in IntAct's records for PubMed 12084722.

Target: apoa1_human APOA1 (UniProt P02647)
Sequence (P02647 whole entry): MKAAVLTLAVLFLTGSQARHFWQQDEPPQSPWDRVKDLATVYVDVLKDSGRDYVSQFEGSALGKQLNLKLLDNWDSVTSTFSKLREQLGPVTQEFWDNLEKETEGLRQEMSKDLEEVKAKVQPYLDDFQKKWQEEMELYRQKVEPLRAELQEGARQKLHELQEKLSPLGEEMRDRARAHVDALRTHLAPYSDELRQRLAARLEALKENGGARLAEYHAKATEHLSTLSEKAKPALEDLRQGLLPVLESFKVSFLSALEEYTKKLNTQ

Phospholipid-transporting ATPase ABCA1 (Homo sapiens), O95477 C1477R
effect of a mutation on the interaction: disrupting interaction strength

Phospholipid-transporting ATPase ABCA1 (Homo sapiens), O95477 Q597R
effect of a mutation on the interaction: disrupting interaction strength

Phospholipid-transporting ATPase ABCA1 (Homo sapiens), O95477 R587W
effect of a mutation on the interaction: disrupting interaction strength

Phospholipid-transporting ATPase ABCA1 (Homo sapiens), O95477 S1506L
effect of a mutation on the interaction: disrupting interaction strength

Phospholipid-transporting ATPase ABCA1 (Homo sapiens), O95477 W590S
effect of a mutation on the interaction: increasing interaction strength
